Test results: ChEMBL document CHEMBL2074060, “MDR1 P-glycoprotein transports endogenous opioid peptides” (Peptides, 2001)

Tested on: C[C@@H](NC(=O)[C@@H](N)Cc1ccc(O)cc1)C(=O)NCC(=O)N(C)[C@@H](Cc1ccccc1)C(=O)NCCO
Test: TP_TRANSPORTER: uptake in membrane vesicle from MDR1-expressing SW1573/S1 cell
Type: functional, cell membranes

ATP-dependent translocase ABCB1 (Homo sapiens)
Km: 43 µM
